Results taken from article PMC11908248 (bioRxiv, 2025).

B1: UNC-116-sfGFP-StrepII (natural protein, C. elegans, UniProt P34540 1-815, looked up)
chain: MEPRTDGAECGVQVFCRIRPLNKTEEKNADRFLPKFPSEDSISLGGKVYVFDKVFKPNTTQEQVYKGAAYHIVQDVLSGYNGTVFAYGQTSSGKTHTMEGVIGDNGLSGIIPRIVADIFNHIYSMDENLQFHIKVSYYEIYNEKIRDLLDPEKVNLSIHEDKNRVPYVKGATERFVGGPDEVLQAIEDGKSNRMVAVTNMNEHSSRSHSVFLITVKQEHQTTKKQLTGKLYLVDLAGSEKVSKTGAQGTVLEEAKNINKSLTALGIVISALAEGTKSHVPYRDSKLTRILQESLGGNSRTTVIICASPSHFNEAETKSTLLFGARAKTIKNVVQINEELTAEEWKRRYEKEKEKNTRLAALLQAAALELSRWRAGESVSEVEWVNLSDSAQMAVSEVSGGSTPLMERSIAPAPPMLTSTTGPITDEEKKKYEEERVKLYQQLDEKDDEIQKVSQELEKLRQQVLLQEEALGTMRENEELIREENNRFQKEAEDKQQEGKEMMTALEEIAVNLDVRQAECEKLKRELEVVQEDNQSLEDRMNQATSLLNAHLDECGPKIRHFKEGIYNVIREFNIADIASQNDQLPDHDLLNHVRIGVSKLFSEYSAAKESSTAAEHDAEAKLAADVARVESGQDAGRMKQLLVKDQAAKEIKPLTDRVNMELTTLKNLKKEFMRVLVARCQANQDTEGEDSLSGPAQKQRIQFLENNLDKLTKVHKQLVRDNADLRVELPKMEARLRGREDRIKILETALRDSKQRSQAERKKYQQEVERIKEAVRQRNMRRMNAPQIVKPIRPGQVYTSPSAGMSQGAPNGSNA
B2: UNC-83a^N-term-mScarlet-StrepII (domain or fragment, C. elegans, UniProt Q23064 1-305, looked up)
chain: MDVMDSFSEVEMPNDISSEDHLLKVIESSAEEVDIFLENCSSLYNLILDSLHNLTSKTISCECLDEMTSTLEKSAKKILAERPEAENSVLLRLNTICCAMDQLRVQHNSRMMSGADSDTASSARSSTSSSTGEMRLWLHEVERRLEINEKRIRVEPNLQLLLSDQQALQLEIQHEGQLLVNRLNKQIKDDHDSDSSEEEKRKTCVDAIRKRWHTIYLNSLSLVCRIEELINHQQASEDSESDPDLVGPPIKRARIRTVGHLTASDTEESEADEEDRHSQTETVVTEDDNVLPFAENEYESIMDGR

Columns and labels:
GST-KLC-2 (C. elegans) [1] = biological target: GST-KLC-2 (C. elegans) (UniProt P46822); experiment: BLI
GST-KLC-2 (C. elegans), sequence (P46822 whole entry): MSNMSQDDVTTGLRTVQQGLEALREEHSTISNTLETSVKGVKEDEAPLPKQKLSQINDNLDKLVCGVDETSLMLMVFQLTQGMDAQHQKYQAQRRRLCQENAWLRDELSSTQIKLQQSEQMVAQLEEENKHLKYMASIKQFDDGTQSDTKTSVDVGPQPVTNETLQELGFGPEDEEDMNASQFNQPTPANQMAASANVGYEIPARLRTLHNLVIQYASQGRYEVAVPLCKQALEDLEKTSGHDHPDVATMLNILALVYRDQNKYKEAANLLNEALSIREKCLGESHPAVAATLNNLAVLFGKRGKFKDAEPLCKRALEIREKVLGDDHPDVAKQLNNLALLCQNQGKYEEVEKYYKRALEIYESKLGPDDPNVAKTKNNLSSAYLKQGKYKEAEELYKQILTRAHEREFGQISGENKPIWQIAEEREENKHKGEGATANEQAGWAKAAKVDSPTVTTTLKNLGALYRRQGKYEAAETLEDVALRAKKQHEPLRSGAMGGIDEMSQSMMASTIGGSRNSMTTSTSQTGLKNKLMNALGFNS

[2] = biological target: C. elegans kinesin-1 heterotetramer (UNC-116-sfGFP-StrepII + KLC-2-6xHis) (C. elegans) (UniProt P34540); experiment: mass photometry
[3] = biological target: UNC-116-sfGFP-StrepII (C. elegans) (UniProt P34540); experiment: mass photometry
GST-KLC-2 (C. elegans) [4] = biological target: GST-KLC-2 (C. elegans) (UniProt P46822); experiment: mass photometry
mass photometry = biological target: the molecule itself; experiment: mass photometry
UNC-116-sfGFP-StrepII = biological target: B1; experiment: mass photometry

UNC-83a-mScarlet-StrepII (from UniProt Q23064 1-1041) (domain or fragment)
Kd (GST-KLC-2 (C. elegans) [1]): > 1000 nM | percent of particles in the peak of the complex [2]: 97 % peak | stoichiometry N (UNC-83a monomer per kinesin-1 tetramer) [2]: 1 | percent of particles in the peak of the complex [3]: 99 % peak | stoichiometry N (UNC-83a monomer per UNC-116 dimer) [3]: 1

UNC-83c-mScarlet-StrepII (domain or fragment)
percent of particles in the peak of the complex (GST-KLC-2 (C. elegans) [4]): 97 % peak | stoichiometry N (UNC-83c monomer per KLC-2 monomer) (GST-KLC-2 (C. elegans) [4]): 1

B1
stoichiometry N (mass photometry): 2

B2
stoichiometry N (UNC-116-sfGFP-StrepII): 1 UNC-83a^N-term monomer per UNC-116 dimer | stoichiometry N (mass photometry): 2
